{"source": "patent EP1034789A1", "biological_target": "human MIP-1α (human) (UniProt P10147)", "sequence (P10147 24-92 limits assumed)": "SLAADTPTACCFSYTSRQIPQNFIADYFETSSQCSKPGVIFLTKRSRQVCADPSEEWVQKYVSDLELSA", "experiment": "125I-MIP-1α bound to human monocytic cells, Exp. 1, 200X molar excess M-T1"}
{"substance": "myxoma T1 protein (type-2 CBP)", "values": [{"measurement": "Surface Bound MIP-1α", "value": 978, "unit": "cpm"}]}
